Reference: patent US20120172295A1 (INDIANA UNIVERSITY RESEARCH AND TECHNOLOGY, published 2012)
Read-outs that look alike come from different tables or passages of the source. Starred links: 1 amine or outer side, 2 acyl side, 3 side chain; linkers in the order of their positions; H or OH if unused. Positions of bridges follow the written chain, without caps; N, C: chain ends. Non-standard residues stand in square brackets, D forms with d. Groups on a side chain read outwards from the residue. Primed or numbered codes have the meaning given here. No end group written: not given here. *: point of attachment. PEG 40 kDa = 40 kDa polyethylene glycol attached to Cys; PEG 40 kDa″ = 40 kDa polyethylene glycol; γGlu = O=C(O)[C@H](CCC(=O)[*:2])N[*:1]; Stearoyl = CCCCCCCCCCCCCCCCCC(=O)*; Palmitoyl = CCCCCCCCCCCCCCCC(=O)*; Myristoyl = CCCCCCCCCCCCCC(=O)*; Nle = CCCC[C@H](N)C(=O)O; Octanoyl = CCCCCCCC(=O)*; Orn = NCCC[C@H](N)C(=O)O; Aib = CC(C)(N)C(=O)O

Assays:
Assay in all cases: cell-based or functional assay
GLP-1 receptor [1] = target: T1, GLP-1 receptor (UniProt P43220 24-463, limits assumed)
GLP-1 receptor [2] = target: T1, GLP-1 receptor; remark: listed apart in the source
GLP-1 receptor [3] = target: T1, GLP-1 receptor; remark: listed apart in the source
glucagon receptor [4] = target: T2, glucagon receptor (UniProt P47871 26-477, limits assumed)
glucagon receptor [5] = target: T2, glucagon receptor; remark: listed apart in the source
glucagon receptor [6] = target: T2, glucagon receptor; remark: listed apart in the source
GLP-1 receptor [7] = target: T1, GLP-1 receptor; remark: listed apart in the source
glucagon receptor [8] = target: T2, glucagon receptor; remark: listed apart in the source
GLP-1 receptor [9] = target: T1, GLP-1 receptor; remark: listed apart in the source
glucagon receptor [10] = target: T2, glucagon receptor; remark: listed apart in the source
GLP-1 receptor [11] = target: T1, GLP-1 receptor; remark: listed apart in the source
glucagon receptor [12] = target: T2, glucagon receptor; remark: listed apart in the source
GLP-1 receptor [13] = target: T1, GLP-1 receptor; remark: listed apart in the source
glucagon receptor [14] = target: T2, glucagon receptor; remark: listed apart in the source
GLP-1 receptor [15] = target: T1, GLP-1 receptor; remark: listed apart in the source
glucagon receptor [16] = target: T2, glucagon receptor; remark: listed apart in the source
GLP-1 receptor [17] = target: T1, GLP-1 receptor; remark: listed apart in the source
glucagon receptor [18] = target: T2, glucagon receptor; remark: listed apart in the source

T2 sequence (P47871 26-477 limits assumed): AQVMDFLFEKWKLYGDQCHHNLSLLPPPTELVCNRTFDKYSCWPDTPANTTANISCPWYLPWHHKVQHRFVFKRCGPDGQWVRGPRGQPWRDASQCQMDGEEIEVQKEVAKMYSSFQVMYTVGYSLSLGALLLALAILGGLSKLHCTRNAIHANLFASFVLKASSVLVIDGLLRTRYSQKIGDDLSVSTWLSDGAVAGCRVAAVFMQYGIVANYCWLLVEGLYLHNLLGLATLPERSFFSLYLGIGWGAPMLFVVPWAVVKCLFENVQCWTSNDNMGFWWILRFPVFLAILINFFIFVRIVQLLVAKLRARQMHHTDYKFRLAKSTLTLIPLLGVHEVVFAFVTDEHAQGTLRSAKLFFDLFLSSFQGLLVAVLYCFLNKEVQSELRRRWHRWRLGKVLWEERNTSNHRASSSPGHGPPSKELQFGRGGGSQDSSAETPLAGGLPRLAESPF

B1: C14 acylated Glucagon analog peptide (SEQ ID NO: 535) (peptide)
peptide: H[Aib]QGTFTSDK(Myristoyl)SKYLDEQAAKEFIC(PEG 40 kDa)WLMNT-NH2
EC50 (GLP-1 receptor [1]): 0.0168 nM | EC50 (GLP-1 receptor [2]): 0.044 nM

B2: NLeu3, E16 Gluc-NH2 (peptide)
peptide: HS[Nle]GTFTSDYSKYLDERRAQDFVQWLMNT-NH2
Percent Potency Relative to Native Ligand (GLP-1 receptor [3]): 20.6%

B3: Peptide 50 (SEQ ID NO: 563) (peptide)
peptide: H[Aib]QGTFTSDK(Palmitoyl)SKYLD[Aib]RRAQDFVQWLMNT-NH2
EC50 (glucagon receptor [4]): 0.052 nM | EC50 (20% human plasma) (glucagon receptor [4]): 0.023 nM | EC50 (glucagon receptor [5]): 0.572 nM

B4: Orn3, E16 Gluc-NH2 (peptide)
peptide: HS[Orn]GTFTSDYSKYLDERRAQDFVQWLMNT-NH2
Percent Potency Relative to Native Ligand (GLP-1 receptor [3]): 0.1%

B5: Peptide 78** (SEQ ID NO: 617) (peptide)
peptide: H[Aib]QGTFTSDK([γGlu-γGlu-Myristoyl])SKYLD[Aib]RRAQDFVCWLMNT-NH2
modifications: N-terminus assumed
SMILES: CCCCCCCCCCCCCC(=O)N[C@@H](CCC(=O)N[C@@H](CCC(=O)NCCCC[C@H](NC(=O)[C@H](CC(=O)O)NC(=O)[C@H](CO)NC(=O)[C@@H](NC(=O)[C@H](Cc1ccccc1)NC(=O)[C@@H](NC(=O)CNC(=O)[C@H](CCC(N)=O)NC(=O)C(C)(C)NC(=O)[C@@H](N)Cc1c[nH]cn1)[C@@H](C)O)[C@@H](C)O)C(=O)N[C@@H](CO)C(=O)N[C@@H](CCCCN)C(=O)N[C@@H](Cc1ccc(O)cc1)C(=O)N[C@@H](CC(C)C)C(=O)N[C@@H](CC(=O)O)C(=O)NC(C)(C)C(=O)N[C@@H](CCCNC(=N)N)C(=O)N[C@@H](CCCNC(=N)N)C(=O)N[C@@H](C)C(=O)N[C@@H](CCC(N)=O)C(=O)N[C@@H](CC(=O)O)C(=O)N[C@@H](Cc1ccccc1)C(=O)N[C@H](C(=O)N[C@@H](CS)C(=O)N[C@@H](Cc1c[nH]c2ccccc12)C(=O)N[C@@H](CC(C)C)C(=O)N[C@@H](CCSC)C(=O)N[C@@H](CC(N)=O)C(=O)N[C@H](C(N)=O)[C@@H](C)O)C(C)C)C(=O)O)C(=O)O
EC50 (glucagon receptor [6]): 0.009 nM | EC50 (GLP-1 receptor [7]): 0.008 nM

B6: Peptide 79** (SEQ ID NO: 620) (peptide)
peptide: H[Aib]QGTFTSDK([Ala-Ala-Palmitoyl])SKYLD[Aib]RRAQDFVCWLMNT-NH2
modifications: N-terminus assumed
SMILES: CCCCCCCCCCCCCCCC(=O)N[C@@H](C)C(=O)N[C@@H](C)C(=O)NCCCC[C@H](NC(=O)[C@H](CC(=O)O)NC(=O)[C@H](CO)NC(=O)[C@@H](NC(=O)[C@H](Cc1ccccc1)NC(=O)[C@@H](NC(=O)CNC(=O)[C@H](CCC(N)=O)NC(=O)C(C)(C)NC(=O)[C@@H](N)Cc1c[nH]cn1)[C@@H](C)O)[C@@H](C)O)C(=O)N[C@@H](CO)C(=O)N[C@@H](CCCCN)C(=O)N[C@@H](Cc1ccc(O)cc1)C(=O)N[C@@H](CC(C)C)C(=O)N[C@@H](CC(=O)O)C(=O)NC(C)(C)C(=O)N[C@@H](CCCNC(=N)N)C(=O)N[C@@H](CCCNC(=N)N)C(=O)N[C@@H](C)C(=O)N[C@@H](CCC(N)=O)C(=O)N[C@@H](CC(=O)O)C(=O)N[C@@H](Cc1ccccc1)C(=O)N[C@H](C(=O)N[C@@H](CS)C(=O)N[C@@H](Cc1c[nH]c2ccccc12)C(=O)N[C@@H](CC(C)C)C(=O)N[C@@H](CCSC)C(=O)N[C@@H](CC(N)=O)C(=O)N[C@H](C(N)=O)[C@@H](C)O)C(C)C
EC50 (glucagon receptor [6]): 0.01 nM | EC50 (GLP-1 receptor [7]): 0.008 nM

B7: Peptide dS2K10(C14)E16K20-Gluc Amide (peptide)
peptide: HXQGTFTSDKSKYLDERRAKDFVQWLMNT
modifications: d-Ser at 2; Lys 10 acylated with C14; C-terminal amide
EC50 (glucagon receptor [8]): 0.155 nM | EC50 (GLP-1 receptor [9]): 0.041 nM

B8: E16 K20-glucagon-NH2 with K10-C16 (peptide)
peptide: HSQGTFTSDK(Palmitoyl)SKYLDERRAKDFVQWLMNT-NH2
EC50 (glucagon receptor [10]): 0.236 nM | EC50 (GLP-1 receptor [11]): 0.125 nM | EC50 (glucagon receptor [12]): 0.4 nM | EC50 (GLP-1 receptor [13]): 0.09 nM

B9: Non-acylated Glucagon analog peptide (SEQ ID NO: 580) (peptide)
peptide: H[Aib]QGTFTSDKSKYLDEQAAKEFIC(PEG 40 kDa)WLMNT-NH2
EC50 (GLP-1 receptor [2]): 0.095 nM

B10: Peptide dS2E16K20K30-C14 Gluc Amide (peptide)
peptide: HXQGTFTSDYSKYLDERRAKDFVQWLMNTK
modifications: d-Ser at 2; Lys 30 acylated with C14; C-terminal amide
EC50 (glucagon receptor [8]): 3.53 nM | EC50 (GLP-1 receptor [9]): 0.84 nM

B11: C16 acylated Glucagon analog peptide (SEQ ID NO: 536) (peptide)
peptide: H[Aib]QGTFTSDK(Palmitoyl)SKYLDEQAAKEFIC(PEG 40 kDa)WLMNT-NH2
EC50 (glucagon receptor [14]): 17.4 nM | EC50 (GLP-1 receptor [15]): 0.05 nM | EC50 (GLP-1 receptor [1]): 0.0127 nM | EC50 (GLP-1 receptor [2]): 0.033 nM

B12: Peptide dS2E16K20K30-C16 Gluc Amide (peptide)
peptide: HXQGTFTSDYSKYLDERRAKDFVQWLMNTK
modifications: d-Ser at 2; Lys 30 acylated with C16; C-terminal amide
EC50 (glucagon receptor [8]): 4.89 nM | EC50 (GLP-1 receptor [9]): 3.05 nM

B13: Peptide X (peptide)
peptide: H[Aib]QGTFTSDYSKYLDEQAAKEFICWLMNT
% activity of native glucagon (glucagon receptor [16]): 9.38% | % activity of native GLP-1 (GLP-1 receptor [17]): 202%

B14: Peptide dS2K10(C16)E16K20-Gluc Amide (peptide)
peptide: HXQGTFTSDKSKYLDERRAKDFVQWLMNT
modifications: d-Ser at 2; Lys 10 acylated with C16; C-terminal amide
EC50 (glucagon receptor [8]): 0.076 nM | EC50 (GLP-1 receptor [9]): 0.041 nM

B15: C8 acylated Glucagon analog peptide (SEQ ID NO: 534) (peptide)
peptide: H[Aib]QGTFTSDK(Octanoyl)SKYLDEQAAKEFIC(PEG 40 kDa)WLMNT-NH2
EC50 (GLP-1 receptor [1]): 0.0174 nM | EC50 (GLP-1 receptor [2]): 0.058 nM

B16: E16 K20-glucagon-NH2 with K10-W-C18 (peptide)
peptide: HSQGTFTSDK([Trp-Stearoyl])SKYLDERRAKDFVQWLMNT-NH2
EC50 (glucagon receptor [10]): 0.044 nM | EC50 (glucagon receptor [12]): 0.05 nM

B17: Peptide 80** (SEQ ID NO: 619) (peptide)
peptide: H[Aib]QGTFTSDK([γGlu-γGlu-Palmitoyl])SKYLD[Aib]RRAQDFVCWLMNT-NH2
modifications: N-terminus assumed
SMILES: CCCCCCCCCCCCCCCC(=O)N[C@@H](CCC(=O)N[C@@H](CCC(=O)NCCCC[C@H](NC(=O)[C@H](CC(=O)O)NC(=O)[C@H](CO)NC(=O)[C@@H](NC(=O)[C@H](Cc1ccccc1)NC(=O)[C@@H](NC(=O)CNC(=O)[C@H](CCC(N)=O)NC(=O)C(C)(C)NC(=O)[C@@H](N)Cc1c[nH]cn1)[C@@H](C)O)[C@@H](C)O)C(=O)N[C@@H](CO)C(=O)N[C@@H](CCCCN)C(=O)N[C@@H](Cc1ccc(O)cc1)C(=O)N[C@@H](CC(C)C)C(=O)N[C@@H](CC(=O)O)C(=O)NC(C)(C)C(=O)N[C@@H](CCCNC(=N)N)C(=O)N[C@@H](CCCNC(=N)N)C(=O)N[C@@H](C)C(=O)N[C@@H](CCC(N)=O)C(=O)N[C@@H](CC(=O)O)C(=O)N[C@@H](Cc1ccccc1)C(=O)N[C@H](C(=O)N[C@@H](CS)C(=O)N[C@@H](Cc1c[nH]c2ccccc12)C(=O)N[C@@H](CC(C)C)C(=O)N[C@@H](CCSC)C(=O)N[C@@H](CC(N)=O)C(=O)N[C@H](C(N)=O)[C@@H](C)O)C(C)C)C(=O)O)C(=O)O
EC50 (glucagon receptor [6]): 0.006 nM | EC50 (GLP-1 receptor [7]): 0.008 nM

B18: Peptide 77** (SEQ ID NO: 616) (peptide)
peptide: H[Aib]QGTFTSDK(Myristoyl)SKYLD[Aib]RRAQDFVCWLMNT-NH2
modifications: N-terminus assumed
SMILES: CCCCCCCCCCCCCC(=O)NCCCC[C@H](NC(=O)[C@H](CC(=O)O)NC(=O)[C@H](CO)NC(=O)[C@@H](NC(=O)[C@H](Cc1ccccc1)NC(=O)[C@@H](NC(=O)CNC(=O)[C@H](CCC(N)=O)NC(=O)C(C)(C)NC(=O)[C@@H](N)Cc1c[nH]cn1)[C@@H](C)O)[C@@H](C)O)C(=O)N[C@@H](CO)C(=O)N[C@@H](CCCCN)C(=O)N[C@@H](Cc1ccc(O)cc1)C(=O)N[C@@H](CC(C)C)C(=O)N[C@@H](CC(=O)O)C(=O)NC(C)(C)C(=O)N[C@@H](CCCNC(=N)N)C(=O)N[C@@H](CCCNC(=N)N)C(=O)N[C@@H](C)C(=O)N[C@@H](CCC(N)=O)C(=O)N[C@@H](CC(=O)O)C(=O)N[C@@H](Cc1ccccc1)C(=O)N[C@H](C(=O)N[C@@H](CS)C(=O)N[C@@H](Cc1c[nH]c2ccccc12)C(=O)N[C@@H](CC(C)C)C(=O)N[C@@H](CCSC)C(=O)N[C@@H](CC(N)=O)C(=O)N[C@H](C(N)=O)[C@@H](C)O)C(C)C
EC50 (glucagon receptor [6]): 0.144 nM | EC50 (GLP-1 receptor [7]): 0.063 nM

B19: Glucagon (1-29a) Aib2 Lys10-Trp-C16 Aib16 Cys24-40 kD (peptide)
peptide: H[Aib]QGTFTSDK([Trp-Palmitoyl])SKYLD[Aib]RRAQDFVC(PEG 40 kDa)WLMNT-NH2
EC50 (glucagon receptor [18]): 0.29 nM

B20: Peptide Y-PEG (peptide)
peptide: H[Aib]QGTFTSDYSKYLDEQAAKEFIC([maleimide-PEG 40 kDa″])WLMNT
modifications: lactam 16-20
% activity of native glucagon (glucagon receptor [16]): 8.22% | EC50 (cAMP, CRE-luciferase) (glucagon receptor [16]): 0.667 nM | % activity of native GLP-1 (GLP-1 receptor [17]): 47.6% | EC50 (cAMP, CRE-luciferase) (GLP-1 receptor [17]): 0.059 nM
